B1: Chitinase 2: chitinolytic enzyme from P. orarium, SEQ ID NO: 2, recombinant with PelB signal peptide and 6×His tag (protein, listed as Photobacterium orarium)
chain: MATANYNPDGVYSAGEQVIYQGATYQALRSTENEAPDTYLGDAWQQVNAQNVTSSTTPTYPAYQSSAVYVGGDHVSYNSQIYKAKWWTQGEAPDATPGTGVWEWVSADNNPDPGPGPDPDPTPEPTPANGIIGQNPDGSYIMSKTYLDAREAELTSSPEFAAVLASISTRDNAVVEAVVPGLSTNPDNVKRVEALISEQKWDALFPERNVVYTYSNFLKAVAKFKGFCATYTDERAAQSDAICAKSLAVMFAHFTQETGAHNPHSPYEEWRQGLFFVREAGCSEEASSCGYNSECAASNWQTEQWPCGTNPDGSYVKYFGRGAKQLSYHYNYGPFSDFIFNDVNVLLQDPDRVADSWLNLASAVFFFVYPQPPKPSMLHVIDGTWQPTAADIAEKRVPGFGVTTMIINGGIECTLDTEKPQSVNRIKYYRGHAAALGVAIPADEQLGCAGMKAFKKTGDSTFGLYWENDWSYYPDNPGGSSFACRIESGYQTAHTTLKKGDYAKCIQKYYGVTIE
modifications: PelB signal peptide; 6xHis tag; Chitinase 2
B2: Chitinase 5: chitinolytic enzyme from P. orarium, SEQ ID NO: 5, recombinant with PelB signal peptide and 6×His tag (protein, listed as Photobacterium orarium)
chain: MAMGWSQININGVQKWEEAYSLNVDAANEIITIGAADTAGALYASQSLLQLVDGNKVPEVQITDAPRFAYRGFSVDAVRNFRTKDAIIQLLDQMAAFKLNKLHLRLADDEGWRIEIAGLPELTDVGATRCHDPEEKACILPFLGAGPDGSPESNGYYTATDYQDILSHAAALNIEVVPEIDIPGHAHAAIKAMEARYDHYAAQGNMAEANKYLLTDFNDTTQYLSVQMFTDNAINVCMESSYNFVDAVVSGLVSLHQGVQPLKTFHFGGDEIAGAWINSPACQDFIANNTDGVHSVSDLSRYFVERISVITANYGLDMAGWEDGLMHDGQVYPRSQMANNQLWGNAWQNIWEWGVADRAYNLANNDYKVVYNHATHLYFDHPYEPDPNERGYYWAPRFTDTRKTFGFMPDDVFANADFTRAGAPITKAEVVASAGVKKLLKPENVLGLQGSLWAEAVRTEDQFEGMIFPRVLGLAERAWHTATWEANDNAGIALDETGRNADYNHFANLLGQKVLPKLEQAGIAFNLPVPGGVIENGVLQANSTFPGLTIEYSTDQGTSWQSYDHLNPPAVAAGVQLRTVSGQRTSRVTTVNIE
modifications: PelB signal peptide; 6xHis tag; Chitinase 5

Assays:
[1] = tested on: Fusarium oxysporum; test: Minimum inhibitory concentration (MIC) test on fungal pathogens; type: cell-based; design: key: xx = no growth/strong inhibition; x = small inhibition; conditions: start concentration 100 μg/ml
[2] = Substrate specificity, reducing end assay; type: biochemical; conditions: in % activity of chitin powder; 16 h at optimum conditions, 50 mg/ml substrate
Procedure: Different chitinous substrates were tested to assess the substrate affinity of the novel chitinases relative to untreated chitin powder. […] As expected, the conversion of colloidal chitin is more efficient compared to chitin powder as it provides an overall smaller particle size and thereby larger surface area. Chitosan powder (degree of acetylation: 15%) was also degraded efficiently and high chitosanase activity was observed especially for C1, C3, C4 and C5. Merely basal activity was detected when cellulose was utilized as a substrate for all enzymes.
The preparation of colloidal chitin was similar to the method described by Murthy and Bleakley with some minor differences [Murthy et al., Microbiol., 2012. 10(2): p. 1-5.]. Chitin powder (Carl Roth) was dissolved in concentrated hydrochloric acid (HCl) (5 g in 100 mL) and stirred at 4° C. for 24 h, after which the mixture was centrifuged at 4000×g for 15 min at 4° C. The precipitate was washed to neutral pH with distilled water and stored at 4° C.
(§1) Enzyme samples were incubated at different temperature (10-60° C., 10° C. increment) and pH (4-11, increment 1) using different buffer systems (Acetate, Tris-HCl, MES, total molar concentration 100 mM), as well as NaCl content (0, 1. 2.5, 5, 10 and 20% w/v) to determine optimum reaction conditions. All experiments were carried out at 1.0 ml scale using 2 μM of the respective enzymes and a 5% (wv) suspension of chitin powder extracted from shrimp shells (˜400.000 g/mol; Carl, Roth) in 100 mM MAT buffer. For the determination of the substrate specificity, chitin powder (5% w/v), glycol chitin (10% v/v), colloidal chitin (5% w/v), chitosan [DA 15-25%, medium molecular weight, Sigma-Aldrich] (5% w/v) and microcrystalline cellulose powder (Sigma Aldrich) (5% w/v) were investigated, respectively. The effect of several potential co-factors on activity was elucidated at a concentration of 1 mM. Additionally, the effect of detergents [SDS 0.5% (w/v), Tween-20 and Triton X-100 both at 0.5% (v/v)] and chemicals (Imidazole 100 mM, EDTA 1 mM) on enzymatic activity was assessed. Samples were incubated in a thermomixer for 16 h at 900 rpm. After incubation, samples were analyzed using the enzyme assay. Thermostability was assessed after incubation of recombinant chitinases at 60° C. for different durations followed by the quantification of residual enzyme activity under standard assay conditions.

[3] = tested on: Septoria tritici; test: Minimum inhibitory concentration (MIC) test on fungal pathogens; type: cell-based; design: key: xx = no growth/strong inhibition; x = small inhibition; conditions: start concentration 100 μg/ml
[4] = tested on: Gibberella zeae; type: cell-based; design: key: xx = no growth/strong inhibition; x = small inhibition; conditions: start concentration 100 μg/ml
[5] = Temperature, pH and NaCl optima and temperature stability of recombinant chitinases (reducing end assay); type: biochemical; conditions: for enzyme activity (relative): 20% (w/v) NaCl; for enzyme activity (relative) / Optimum salinity: pH 8, 30° C.; for Optimum pH / Optimum salinity: chitin powder; for Optimum pH: 30° C., pH 4-11; for Optimum salinity: 0-20% w/v NaCl
Procedure: All enzymes were first characterized regarding their temperature and pH-optima as well as the optimum NaCl content as the enzymes were isolated from a sea-water microorganism. As the future intention is to integrate these novel enzymes in a degradation processes of natural chitin, all parameters were determined using chitin powder as a substrate instead of pre-treated analogs such as colloidal chitin, glycol chitin or artificial fluorogenic substrates. […] (FIG. 5A). Next, enzyme temperature stability was investigated (FIG. 51). […] Enzyme C1 retained a 50% residual activity after 240 min incubation at 60° C., while the activity of the other chitinases dropped below 50% after 15 min and remained on that level.
Given the marine origin of the P. orarium strain, the effect of salt was also evaluated, testing the addition of NaCl to the standard buffer. […] Increasing NaCl amounts up to 20% (w/v) reduced enzyme activity substantially to 10% for C2, 4 and 5, with C1 and C3 showing highest tolerance (65% activity).
For the determination of enzymatic activity of recombinant chitinases, a reducing end assay was carried out [Svein et al., Carbohydr Polym, 2004. 56(1): p. 35-39.]. Fractions containing chitinases were incubated with 5% (w/v) chitin powder extracted from shrimp shells (˜400.000 g/mol; Carl Roth) in MAT buffer for 2 h in an overhead shaker at ambient temperature (standard conditions). Samples were centrifuged at 13000×g for 2 min and 40 μl of the supernatant was mixed with 40 μl 0.5 M NaOH and 40 μL of a reagent containing 1.5 mg/ml 3-Methyl-2-benzothiazolinonhydrazon and 0.75 mg/ml Dithiothreitol. Samples were incubated at 80° C. for 15 min and then thoroughly mixed with 80 μl of 0.5% (w/v) FeNH4(SO4)2)×12H2O, 0.5% (w/v) sulfamic acid and 0.25 M HCl. After cooling down to room temperature, 100 μl of the samples were measured at 620 nm. A calibration curve of N-acetyl-glucosamine was constructed freshly for each measuring cycle. One unit [U] was defined as the amount of enzyme required to release 1 μmol of reducing sugars per hour.
as §1

[6] = Enzyme kinetics on chitin powder (Michaelis-Menten non-linear fit); type: biochemical; conditions: 2 μM enzyme, 0-150 mg/ml chitin powder
Procedure: Enzyme kinetics were determined using chitin powder as a substrate and the optimum enzyme to substrate ratio could be determined as well as Vmax and Km values. The concentrations of chitin powder varied
from 0 mg/ml up to 150 mg/ml while amount of enzyme was kept constant (2 μM). The initial velocities (V0) versus substrate concentration ([S]) were plotted as Lineweaver-Burk and Michaelis-Menten curves using GraphPad software (FIG. 7).
Maximum reaction velocities (Vmax) and Michaelis-Menten constants (Km) were determined using a non-linear fit Michaelis-Menten model (Table 4.6). Thereby, optimum enzyme-substrate ratios were determined that would allow a maximization of substrate conversion rates. Furthermore, the Km indicated the reciprocal enzyme-substrate affinity for C1-C5. Higher Km values reflect an overall lower affinity and thus reduced conversion efficiencies. […] In comparison, higher Km values for C2 and C5 reflected an overall lower affinity to insoluble chitin.
as §1

| Molecule | growth inhibition of Fusarium oxysporum in the MIC test [1] | Relative activity, Colloidal chitin [2] [%] | growth inhibition of Septoria tritici in the MIC test [3] | growth inhibition of Gibberella zeae in the MIC test [4] | enzyme activity (relative) [5] [%] | Optimum pH ([5]; listed as C2) | Optimum salinity [5] [% NaCl] | Km (enzyme-substrate affinity) [6] [mg/mL] | Vmax (maximum reaction velocity) [6] [U/ml] | Optimum pH ([5]; listed as C5) |
| --- | --- | --- | --- | --- | --- | --- | --- | --- | --- | --- |
| B1 | xx | 191.4 ± 4.7 | xx | xx | 10 | 10 | 1 | 61.8 | 175.4 | – |
| B2 | xx | 164.1 ± 2.8 | xx | xx | 10 | – | 0 | 36.0 | 89.5 | 9 |
